By Kd is commonly meant the concentration at which binding is half-saturated.

Results on one molecule are retold here after PMC4809050 (2016).

Common to all, as to assay: NMR chemical shift titration
For test [1], the target named is T1, CCR7 N-terminus peptide 2-30 (Homo sapiens, UniProt P32248).
T1 chain: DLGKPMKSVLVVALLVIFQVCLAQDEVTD

In test [2] the target is PSGL-1 N-terminus peptide 1-15 (Homo sapiens, UniProt Q14242, N-terminal pyroglutamate).
The target in test [3] is T2, PSGL-1 N-terminus peptide 2-15 (Homo sapiens, UniProt Q14242).
T2 chain: PLQLLLLLILLGPG

Test [4] concerns the target T3, CCR7 N-terminus peptide 1-30 (Homo sapiens, UniProt P32248).
T3 chain: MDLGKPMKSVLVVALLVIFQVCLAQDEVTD

B1: CCL19 (protein)
chain: GTNDAEDCCLSVTQKPIPGYIVRNFHYLLIKDGCRVPAVVFTTLRGRQLCAPPDQPWVERIIQRLQRTSAKMKRRSS
For B1, the Kd in test [1] is 12 µM; in test [2], 20 µM; in test [3], 18 µM; in test [4], 52 µM.
